From article PMC2570489, “The Co-Operonic PE25/PPE41 Protein Complex of Mycobacterium tuberculosis Elicits Increased Humoral and Cell Mediated Immune Response” (PLoS ONE, 2008)

Target: T1, PPE41 protein of Mycobacterium tuberculosis (Mycobacterium tuberculosis, UniProt Q79FE1 1-194)
T1 construct: also called Rv2430c; rRv2431c (as printed in the methods)
T1 sequence: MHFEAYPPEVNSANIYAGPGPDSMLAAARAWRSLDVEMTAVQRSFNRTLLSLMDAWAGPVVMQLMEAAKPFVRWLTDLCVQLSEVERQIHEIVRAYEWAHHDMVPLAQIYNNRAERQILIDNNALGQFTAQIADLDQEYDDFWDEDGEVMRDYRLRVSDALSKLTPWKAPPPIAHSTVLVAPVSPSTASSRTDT
Assay: co-purification by Cobalt affinity chromatography
Details: partners not purified

B1: PE25 protein of Mycobacterium tuberculosis (natural protein)
chain: MSFVITNPEALTVAATEVRRIRDRAIQSDAQVAPMTTAVRPPAADLVSEKAATFLVEYARKYRQTIAAAAVVLEEFAHALTTGADKYATAEADNIKTFS
notes: also called Rv2431c; rRv2430c (as printed in the methods)
B1: binds.
